Assay results as given in publication PMC8322077, “Antibody toolkit reveals N-terminally ubiquitinated substrates of UBE2W” (Nature Communications, 2021).

Molecular target: T1, biotinylated ubiquitin (UniProt P0CG48 1-76, biotin)
T1 construct: ubiquitin (monoubiquitin); also called biotin-Ub; monoubiquitin; source: bought: Boston Biochem (Cat# UB-570)
Assay: BLI; Octet Red384; biotinylated ubiquitin immobilised on streptavidin biosensors; analyte fourfold dilutions starting at 5 μM; 25 °C; 150 mM NaCl, 20 mM Tris 7.5, 1 mg/mL BSA, 0.01% Tween-20, 1 mM TCEP; association 180 s, dissociation 300 s
Conditions: both partners purified

binding result: binds
B1: UCHL5^WT (enzyme, UniProt Q9Y5K5 1-329, looked up)
chain: MTGNAGEWCLMESDPGVFTELIKGFGCRGAQVEEIWSLEPENFEKLKPVHGLIFLFKWQPGEEPAGSVVQDSRLDTIFFAKQVINNACATQAIVSVLLNCTHQDVHLGETLSEFKEFSQSFDAAMKGLALSNSDVIRQVHNSFARQQMFEFDTKTSAKEEDAFHFVSYVPVNGRLYELDGLREGPIDLGACNQDDWISAVRPVIEKRIQKYSEGEIRFNLMAIVSDRKMIYEQKIAELQRQLAEEEPMDTDQGNSMLSAIQSEVAKNQMLIEEEVQKLKRYKIENIRRKHNYLPFIMELLKTLAEHQQLIPLVEKAKEKQNAKKAQETK
notes: ubiquitin C-terminal hydrolase L5 (UCHL5), full-length wild type; also called UCH37; source: E. coli BL21-Gold(DE3), purified (Ni-NTA, SEC)
